Laboratory results: US20100226910

Target: Amyloid beta1-42 standard (from β-Amyloid1-42 ELISA, Human kit, Sigma BE0200), P05067
Sequence (P05067 whole entry, looked up, tested part not stated): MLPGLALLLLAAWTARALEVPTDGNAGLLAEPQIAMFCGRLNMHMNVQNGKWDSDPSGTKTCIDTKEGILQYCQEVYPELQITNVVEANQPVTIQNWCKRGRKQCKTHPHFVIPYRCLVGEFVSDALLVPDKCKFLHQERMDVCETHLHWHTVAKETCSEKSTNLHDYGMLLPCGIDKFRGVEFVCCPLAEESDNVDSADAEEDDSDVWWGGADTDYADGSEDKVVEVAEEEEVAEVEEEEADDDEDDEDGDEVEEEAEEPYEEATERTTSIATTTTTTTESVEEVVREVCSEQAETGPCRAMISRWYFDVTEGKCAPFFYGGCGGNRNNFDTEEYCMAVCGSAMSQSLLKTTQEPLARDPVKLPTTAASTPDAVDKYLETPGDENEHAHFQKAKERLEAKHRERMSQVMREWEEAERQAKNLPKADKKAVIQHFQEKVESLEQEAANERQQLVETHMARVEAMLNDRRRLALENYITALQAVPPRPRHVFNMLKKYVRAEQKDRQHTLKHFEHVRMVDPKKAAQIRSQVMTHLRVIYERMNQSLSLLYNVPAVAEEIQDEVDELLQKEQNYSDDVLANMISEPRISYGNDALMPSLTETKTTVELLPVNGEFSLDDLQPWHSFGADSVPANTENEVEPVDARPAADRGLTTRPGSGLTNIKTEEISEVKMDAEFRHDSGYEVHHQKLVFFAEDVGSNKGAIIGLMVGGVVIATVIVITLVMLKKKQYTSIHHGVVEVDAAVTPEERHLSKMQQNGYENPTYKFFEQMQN

B1: Tissue kallikrein (SEQ ID NO:1) (protein)
chain: IIGGRECEKDSHPWQVAIYHYSSFQCGGVLVDPKWVLTAAHCKNDNYQVWLGRHNLFENEVTAQFFGVTADFPHPGFNLSLLKNHTKADGKDYSHDLMLLRLQSPAKITDAVKVLELPTQEPELGSTCQASGWGSIEPGPDDFEFPDEIQCVELTLLQNTFCADAHPDKVTESMLCAGYLPGGKDTCMGDSGGPLICNGMWQGITSWGHTPCGSANKPSIYTKLIFYLDWINDTITENP
- % Cleavage (ELISA of remaining Aβ1-42), KLK1 1 pg/mL, 3 hrs: 0%
- % Cleavage (ELISA of remaining Aβ1-42), KLK1 1 pg/mL, 18 hrs: 0%
- % Cleavage (ELISA of remaining Aβ1-42), KLK1 10 pg/mL, 3 hrs: 0%
- % Cleavage (ELISA of remaining Aβ1-42), KLK1 10 pg/mL, 18 hrs: 15%
- % Cleavage (ELISA of remaining Aβ1-42), KLK1 100 pg/mL, 3 hrs: 0%
- % Cleavage (ELISA of remaining Aβ1-42), KLK1 100 pg/mL, 18 hrs: 19.5%
- % Cleavage (ELISA of remaining Aβ1-42), KLK1 1 ng/mL, 3 hrs: 19.6%
- % Cleavage (ELISA of remaining Aβ1-42), KLK1 1 ng/mL, 18 hrs: 50%
- % Cleavage (ELISA of remaining Aβ1-42), KLK1 10 ng/mL, 3 hrs: 36.6%
- % Cleavage (ELISA of remaining Aβ1-42), KLK1 10 ng/mL, 18 hrs: 88.4%
- % Cleavage (ELISA of remaining Aβ1-42), KLK1 100 ng/mL, 3 hrs: 71.7%
- % Cleavage (ELISA of remaining Aβ1-42), KLK1 100 ng/mL, 18 hrs: 99.8%
- % Cleavage (ELISA of remaining Aβ1-42), KLK1 1 µg/mL, 3 hrs: 92.1%
- % Cleavage (ELISA of remaining Aβ1-42), KLK1 1 µg/mL, 18 hrs: 100%
